Test results reported in paper PMC3226724.

Molecular target: T1, PriB (Escherichia coli, UniProt P07013 1-104)
T1 sequence: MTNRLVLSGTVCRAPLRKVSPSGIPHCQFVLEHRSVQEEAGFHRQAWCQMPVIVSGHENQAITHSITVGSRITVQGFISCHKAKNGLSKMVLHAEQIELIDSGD
Assay: sedimentation equilibrium

TTTTTTTTTTTTTTTTTTTTTTTTTT (ssDNA) [5'Fl-dT(pT)25 (called 27-mer)]
binding result: binds
